The target in this assay is T1, pyocin S2 DNase domain (Pseudomonas aeruginosa, UniProt Q06584 556-688).
T1 construct: pyocin S2, Pseudomonas aeruginosa, residues 556-688 found in the crystal after crystallisation of the intact PyoS2-ImS2 complex with chymotrypsin; The fragment of PyoS2 in the crystal was unknown to the authors; The limits 556-688 are those found in the solved structure; also called PyoS2 DNase; PyoS2; source: crystallised in the presence of chymotrypsin
T1 sequence: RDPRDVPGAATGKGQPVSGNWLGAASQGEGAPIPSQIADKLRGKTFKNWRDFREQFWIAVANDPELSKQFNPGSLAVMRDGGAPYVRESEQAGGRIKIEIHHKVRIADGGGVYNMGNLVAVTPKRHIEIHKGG
As to the kind of experiment: crystal structure; intact PyoS2-ImS2 complex crystallised with chymotrypsin (1:100); 0.2 M sodium bromide, 20% (w/v) PEG 3350, 0.1 M Bis-tris propane pH 6.5; 1.8 Å; four copies of the complex in the asymmetric unit. The conditions noted are these: both partners purified.

B1: pyocin S2 immunity protein ImS2 (natural protein)
chain: MKSKISEYTEKEFLEFVKDIYTNNKKKFPTEESHIQAVLEFKKLTEHPSGSDLLYYPNENREDSPAGVVKEVKEWRASKGLPGFKAG
notes: immunity protein of pyocin S2 (ImS2), Pseudomonas aeruginosa, full length; the entirety of the immunity protein was present in the crystal
As to B1, the binding result is given as “binds”.

The values above are taken from article PMC4548480, “Structures of the Ultra-High-Affinity Protein–Protein Complexes of Pyocins S2 and AP41 and Their Cognate Immunity Proteins from Pseudomonas aeruginosa” (Journal of Molecular Biology, 2015).
